Drawing on article PMC11036266, this text covers EC50 for 3 substances.

The test concerns the target Human VEGF165 (human) (UniProt P15692). As to the kind of experiment: ELISA; human VEGF165 coated on MaxiSorp plates (0.4 µg/mL in PBS, pH 7.4, overnight); aflibercept samples added as 2-fold serial dilutions (1000.0-1.0 ng/mL) in 4% milk powder in PBS-T, RT, 1.5 h; detected with anti-human IgG γ chain-HRPO; EC50 by four-parametric log model. (In general: An ELISA detects its analyte on a solid surface through an enzyme-linked reagent.)

Chain of Human VEGF165 (human) (P15692 other isoform, or with tags, fused parts or gaps): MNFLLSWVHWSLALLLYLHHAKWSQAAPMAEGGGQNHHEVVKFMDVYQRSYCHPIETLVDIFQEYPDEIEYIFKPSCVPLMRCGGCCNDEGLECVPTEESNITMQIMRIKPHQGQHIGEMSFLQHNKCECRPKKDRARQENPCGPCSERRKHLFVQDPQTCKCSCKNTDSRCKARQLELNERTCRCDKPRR
Chain of Aflibercept with sialylated N-glycans (AFLI^Sia), isolated from total soluble protein (Fc fusion) (chain): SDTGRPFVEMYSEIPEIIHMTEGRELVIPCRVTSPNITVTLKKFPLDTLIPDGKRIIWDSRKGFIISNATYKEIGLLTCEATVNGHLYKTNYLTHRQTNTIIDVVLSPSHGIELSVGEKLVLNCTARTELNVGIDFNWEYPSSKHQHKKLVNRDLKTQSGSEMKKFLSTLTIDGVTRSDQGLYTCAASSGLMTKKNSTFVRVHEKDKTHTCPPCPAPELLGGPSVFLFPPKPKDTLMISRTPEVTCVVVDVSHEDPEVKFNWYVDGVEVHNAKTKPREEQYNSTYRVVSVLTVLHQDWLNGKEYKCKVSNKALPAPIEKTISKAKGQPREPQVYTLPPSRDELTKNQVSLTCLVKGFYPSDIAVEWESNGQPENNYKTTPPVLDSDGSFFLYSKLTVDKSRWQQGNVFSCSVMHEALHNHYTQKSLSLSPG
Chain of Aflibercept with sialylated N-glycans (AFLI^Sia), isolated from intercellular fluid (Fc fusion) (chain): as above
Chain of Aflibercept with GlcNAc-terminated N-glycans (AFLI^GnGn), isolated from total soluble protein (Fc fusion) (chain): as above

“Aflibercept with sialylated N-glycans (AFLI^Sia), isolated from intercellular fluid (Fc fusion)” returned a concentration giving a half-maximal response (EC50) of 0.358 nM.
The result for “Aflibercept with GlcNAc-terminated N-glycans (AFLI^GnGn), isolated from total soluble protein (Fc fusion)” reads 0.242 nM.
“Aflibercept with sialylated N-glycans (AFLI^Sia), isolated from total soluble protein (Fc fusion)”: the EC50 is 0.31 nM.

As usually defined, the EC50 is the midpoint of the concentration-response curve. Read a high EC50 as weaker potency.
